Results as given in US20050148516.

System: heparan sulfate proteoglycan (HSPG) on HUVEC

Substance	amount of FGF-2 released from HSPG on HUVEC (FGF-2 ELISA of the supernatant, 4 °C)
GnT-VΔ188	Like GnT-VΔ73, also GnT-VΔ188 and GnT-VΔ233 released FGF-2
GnT-VΔ73	GnT-VΔ73 and KRKRKK peptide released FGF-2
